pKd: −log10 of the molar value.
Molecular target: unfolded precursor form of maltose binding protein (preMBP) (E. coli)
Assay: ITC; 120 uM SecB or SecB_(T10A) titrated into 20 uM preMBP; 25 °C; KPB buffer pH 7.4, 100 mM; MicroCal PEAQ-ITC; triplicate

Substance	pKd	dH [kcal/mol]	stoichiometry N
SecB chaperone, wild type (from UniProt P0AG86 1-153) (natural protein)	4.21	-1.48	3.08
SecB_(T10A) (from UniProt P0AG86 1-153) (natural protein)	5.28	-1.99	4.99

Source: publication PMC6598250
